Sequences and labels used below:
T1: truncated variant of TgCEN1 lacking the first 21 residues (Δ21TgCEN1, 22–169) (Toxoplasma gondii, UniProt A0A125YHX7 22-169)
T1 sequence (looked up): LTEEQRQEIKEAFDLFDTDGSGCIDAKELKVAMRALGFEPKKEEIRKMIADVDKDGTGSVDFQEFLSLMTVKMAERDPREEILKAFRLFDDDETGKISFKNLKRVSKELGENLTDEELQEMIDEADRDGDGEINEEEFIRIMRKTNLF

T2: N-terminal domain of TgCEN1 lacking the first 21 residues (Δ21N-TgCEN1, 22–94 aa) (Toxoplasma gondii, UniProt A0A125YHX7 22-94)
T2 sequence (looked up): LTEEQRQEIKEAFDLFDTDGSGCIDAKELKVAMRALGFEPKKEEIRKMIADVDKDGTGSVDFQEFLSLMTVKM

B1: N-terminal domain of TgCEN1 (N-TgCEN1, 1–94 aa) (domain or fragment, Toxoplasma gondii, UniProt A0A125YHX7 1-94, looked up)
chain: MHSRKGASSLPRGRGAGKKTELTEEQRQEIKEAFDLFDTDGSGCIDAKELKVAMRALGFEPKKEEIRKMIADVDKDGTGSVDFQEFLSLMTVKM
B2: P17-XPC peptide (17-residue peptide of the human xeroderma pigmentosum group C protein, N847-R863) (peptide)
peptide: NWKLLAKGLLIRERLKR
B3: C-terminal domain of TgCEN1 (C-TgCEN1, 95–169 aa) (domain or fragment)
chain: not shown

Data set [1] deals with the molecule itself. In words: dynamic light scattering.
Data set [2] has as its target B3. In words: ITC.
Data set [3] concerns the target T1, truncated variant of TgCEN1 lacking the …. In words: ITC.
For data set [4], the target named is T2, N-terminal domain of TgCEN1 lacking the …. Briefly: ITC. A general note: In ITC the heat of successive injections is recorded.
Data set [5] concerns the target B3. In words: ITC. This is another data set of the same source.
Data set [6] concerns the target T1, truncated variant of TgCEN1 lacking the …. In words: ITC. The source holds these as a separate data set.
Data set [7] deals with the molecule itself. Briefly: dynamic light scattering. This is another data set of the same source.

From article PMC8286830 (Biochemical Journal, 2021) come the findings set out here.

Where two headings read alike, the source gives them in different places.

For orientation: Kd means the constant that tells how readily two partners part at equilibrium. Read a high Kd as weaker binding. As a reminder, the stoichiometry N is the number of molecules, sites or subunits per partner or assembly.

For B1, the binding result in data set [1] was “binds”.
With B2, in data set [2], the affinity, expressed as Kd, was 6.7 nM; the dH is -22.9 kcal/mol; the “stoichiometry N” value came to 0.8. Further, in data set [3], the “dH of site 1 (high-affinity site, two-site model)” value is -23.8 kcal/mol and the “dH of site 2 (low-affinity site, two-site model)” value is -12.1 kcal/mol. In data set [4], binding was characterised by a dissociation constant (Kd) of 396 nM, the dH is -17.7 kcal/mol and the “stoichiometry N” value came to 0.7. Moreover, in data set [5], binding was characterised by a dissociation constant (Kd) of 50.1 nM, the dH is -28.4 kcal/mol and the “stoichiometry N” value was determined as 0.8. Moreover, in data set [6], the dissociation constant (Kd) is 59.1 nM, the dH was -31.5 kcal/mol and the “stoichiometry N” value was 0.9.
As to B3, in data set [7], the binding result is “binds”.
